T1: P2D SLC16A11^REF-V5 (human, UniProt Q8NCK7 1-447)
T1 construct: bait of the proteomics study; also called P2D WT SLC16A11; WT SLC16A11
T1 sequence: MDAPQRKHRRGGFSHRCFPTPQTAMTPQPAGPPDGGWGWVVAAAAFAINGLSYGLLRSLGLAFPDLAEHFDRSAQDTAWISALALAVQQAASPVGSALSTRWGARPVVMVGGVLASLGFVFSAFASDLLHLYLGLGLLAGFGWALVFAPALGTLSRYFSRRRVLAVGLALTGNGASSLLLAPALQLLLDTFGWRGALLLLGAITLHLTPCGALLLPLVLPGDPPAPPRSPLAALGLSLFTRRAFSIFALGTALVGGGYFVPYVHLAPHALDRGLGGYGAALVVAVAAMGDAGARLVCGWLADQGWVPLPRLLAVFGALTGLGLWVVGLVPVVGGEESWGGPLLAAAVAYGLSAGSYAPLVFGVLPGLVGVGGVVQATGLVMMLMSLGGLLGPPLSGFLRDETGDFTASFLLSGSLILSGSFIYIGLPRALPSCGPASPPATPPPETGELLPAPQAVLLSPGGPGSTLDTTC

B1: SLC16A11^T2D-V5 (other, not shown: small tags and cut ends)
chain: MPAPQRKHRRGGFSHRCFPTPQTAMTPQPAGPPDGGWGWVVAAAAFAINGLSYGLLRSLGLAFPDLAEHFDRSAQDTAWISALALAVQQAASPVGSALSTRWGARPVVMVGGILASLGFVFSAFASGLLHLYLGLGLLAGFGWALVFAPALGTLSRYFSRRRVLAVGLALTGNGASSLLLAPALQLLLDTFGWRGALLLLGAITLHLTPCGALLLPLVLPGDPPAPPRSPLAALGLSLFTRRAFSIFALGTALVGGGYFVPYVHLAPHALDRGLGGYGAALVVAVAAMGDAGARLVCGWLADQGWVPLPRLLAVFGALTGLGLWVVGLVPVVGGEESWGSPLLAAAVAYGLSAGSYAPLVFGVLPGLVGVGGVVQATGLVMMLMSLGGLLGPPLSGFLRDETGDFTASFLLSGSLILSGSFIYIGLPRALPSCGPASPPATPTPETGELLPAPQAVLLSPGGPGSTLDTTCLPTFLYKVVGKPIPNPLLGLDST
B2: Embigin (protein, human, UniProt Q6PCB8 33-327, looked up)
chain: DGSAPDSPFTSPPLREEIMANNFSLESHNISLTEHSSMPVEKNITLERPSNVNLTCQFTTSGDLNAVNVTWKKDGEQLENNYLVSATGSTLYTQYRFTIINSKQMGSYSCFFREEKEQRGTFNFKVPELHGKNKPLISYVGDSTVLTCKCQNCFPLNWTWYSSNGSVKVPVGVQMNKYVINGTYANETKLKITQLLEEDGESYWCRALFQLGESEEHIELVVLSYLVPLKPFLVIVAEVILLVATILLCEKYTQKKKKHSDEGKEFEQIEQLKSDDSNGIENNVPRHRKNESLGQ
B3: Basigin (other, human, UniProt P35613-2 22-269, looked up)
chain: AAGTVFTTVEDLGSKILLTCSLNDSATEVTGHRWLKGGVVLKEDALPGQKTEFKVDSDDQWGEYSCVFLPEPMGTANIQLHGPPRVKAVKSSEHINEGETAMLVCKSESVPPVTDWAWYKITDSEDKALMNGSESRFFVSSSQGRSELHIENLNMEADPGQYRCNGTSSKGSDQAIITLRVRSHLAALWPFLGIVAEVLVLVTIIFIYEKRRKPEDVLDDDDAGSAPLKSSGQHQNDKGKNVRQRNSS
modifications: glycosylated (runs as multiple bands)
notes: Endogenous protein co-precipitated from HEK293T lysate; also called BSG; endogenous BSG

The target of one assay is B3. In words: cell-based or functional assay.
As to B1, the “pyruvate influx and efflux rates (pyronic FRET assay, 293T cells)” value is ~0.5 fold of WT SLC16A11.

For another assay, the target named is T1, P2D SLC16A11^REF-V5. As to the kind of experiment: anti-V5 IP of P2D SLC16A11REF-V5 from HEK293T lysate, iTRAQ quantitative MS; enrichment vs empty vector control IP.
With “7-dehydrocholesterol reductase (from UniProt Q9UBM7 1-475) (enzyme)”, the B.A. logFC was determined as 1.69 logFC and the BA log fold change (log fold change) is 1.69. Turning to ADCK4 (from UniProt Q96D53 1-544), the BA log fold change (log fold change) amounted to 1.11. The same measure, in the same setting: with “AGPAT6 (from UniProt Q86UL3 38-456) (enzyme)” the figure was 1.16; with ATP1B3 (from UniProt P54709 1-279), 1.18. As to AUP1 (from UniProt Q9Y679 1-410), the BA log fold change (log fold change) came to 1.1. For BAG2 (from UniProt O95816 2-211), the B.A. logFC came out at 1.26 logFC and the BA log fold change (log fold change) was 1.26.

With BAG6 (from UniProt P46379 1-1162), the BA log fold change (log fold change) came out at 1.08. Same read-out and setting: with BRAT1 (from UniProt Q6PJG6 1-821) the figure was 1.04. In the case of CANX (from UniProt P27824 56-627), the B.A. logFC turned out to be 1.38 logFC and the BA log fold change (log fold change) came out at 1.38.

With DDOST (from UniProt P39656 43-456), the B.A. logFC is 1.65 logFC and the BA log fold change (log fold change) was determined as 1.65. As for DNAJB4 (from UniProt Q9UDY4 2-337), the BA log fold change (log fold change) is 1.08. Same read-out and setting: the figure for DNAJC3 (from UniProt Q13217 32-504) is 1.22; for DNAJC7 (from UniProt Q99615 2-494) it is 1.05. As to “E3 ubiquitin-protein ligase RNF5 (from UniProt Q99942 2-180) (enzyme)”, the B.A. logFC was found to be 1.42 logFC and the BA log fold change (log fold change) was found to be 1.42. As to EMC3 (from UniProt Q9P0I2 2-261), the B.A. logFC is 1.65 logFC and the BA log fold change (log fold change) turned out to be 1.65.

Regarding “FAS-associated factor 2 (from UniProt Q96CS3 2-445)”, the B.A. logFC was found to be 1.23 logFC and the BA log fold change (log fold change) worked out at 1.23. For the molecule GCN1L1 (from UniProt Q92616 2-2671), the BA log fold change (log fold change) was 1.01. Still for that read-out and setting: with HEATR2 (from UniProt Q86Y56 2-855) the figure was 1.03.

With “HSD17B12 (from UniProt Q53GQ0 1-312) (enzyme)”, the B.A. logFC was 1.26 logFC and the BA log fold change (log fold change) is 1.26. KIAA0368 (from UniProt J3KN16 1-2017): the BA log fold change (log fold change) stood at 1.16. “LPCAT1 (from UniProt Q8NF37 1-534) (enzyme)”: the BA log fold change (log fold change) is 1.16. For the molecule MAGED1 (from UniProt Q9Y5V3 1-834), the BA log fold change (log fold change) was found to be 1.09.

As to “PHGDH (from UniProt O43175 2-533) (enzyme)”, the BA log fold change (log fold change) is 1.11.

PPP6R3 (from UniProt Q5H9R7 1-879): the BA log fold change (log fold change) stood at 1.18. The same measure, in the same setting: with PSMA3 (from UniProt P25788 2-255) the figure was 1.09; with PSMC3 (from UniProt P17980 1-439), 1.16; with PSMD2 (from UniProt Q13200 1-908), 0.98.

As for PSMD11 (from UniProt O00231 1-423), the BA log fold change (log fold change) came to 1.02.

As to PSMD12 (from UniProt O00232 2-456), the BA log fold change (log fold change) came to 1.18. On to PSMD14 (from UniProt O00487 1-310), for which the B.A. logFC was 1.31 logFC and the BA log fold change (log fold change) is 1.31. On the same counts, the results for “Proteasome subunit alpha type-1 (from UniProt P25786 1-269)” are 1.2 logFC and 1.2. Turning to QIL1 (from UniProt Q5XKP0 1-118), the BA log fold change (log fold change) was found to be 1.08. On to “SACM1L (from UniProt Q9NTJ5 1-587) (enzyme)”, for which the B.A. logFC stood at 1.26 logFC and the BA log fold change (log fold change) turned out to be 1.26. For SCFD1 (from UniProt Q8WVM8 2-642), the BA log fold change (log fold change) stood at 1.08. As to SEC61A1 (from UniProt B4DR61 1-482), the B.A. logFC came to 1.84 logFC and the BA log fold change (log fold change) was found to be 1.84. Consider SEC61A2 (from UniProt Q9H9S3 1-476), for which the B.A. logFC stood at 1.59 logFC and the BA log fold change (log fold change) was found to be 1.59. On the same counts, the results for SLC25A3 (from UniProt Q00325 50-361) are 1.65 logFC and 1.65.

Take SLC25A22 (from UniProt Q9H936 1-323): the BA log fold change (log fold change) was determined as 1.2. Still for that read-out and setting: with “STT3A (from UniProt P46977 1-705) (enzyme)” the figure was 1.27.

SURF4 (from UniProt O15260 2-269): the B.A. logFC came to 1.33 logFC and the BA log fold change (log fold change) was 1.33. With “TECR (from UniProt Q9NZ01 1-308) (enzyme)”, the BA log fold change (log fold change) stood at 1.1. On to TIMM23B (from UniProt Q5SRD1 1-188), for which the B.A. logFC was 1.22 logFC and the BA log fold change (log fold change) amounted to 1.22. In the case of TUBA1B (from UniProt P68363 1-451), the BA log fold change (log fold change) stood at 1.05. For TUBA1C (from UniProt F5H5D3 1-519), the BA log fold change (log fold change) amounted to 1.04. TUBA4A (from UniProt P68366 1-448): the BA log fold change (log fold change) worked out at 1.02.

Turning to “Transmembrane protein 33 (from UniProt P57088 2-247)”, the B.A. logFC came to 1.25 logFC and the BA log fold change (log fold change) came out at 1.25.

For UBAC2 (from UniProt Q8NBM4 36-344), the B.A. logFC was 1.21 logFC and the BA log fold change (log fold change) is 1.21.

On to VDAC2 (from UniProt P45880 1-309), for which the BA log fold change (log fold change) came to 1.14.

Take XPO5 (from UniProt Q9HAV4 2-1204): the BA log fold change (log fold change) amounted to 1.14. On to B2, for which the B.A. logFC amounted to 1.55 logFC and the BA log fold change (log fold change) stood at 1.55. As to B3, the “BA log fold change” value was 1.43 log fold change.

The values are drawn from US20190350938A1 (BROAD INSTITUTE, published 2019).
